The text below walks through data of paper PMC10146638 (Viruses, 2023).

No end group written: not given here.

Data set [1] deals with knob domain of the FAdV-4 Fiber2 protein (amino acids 279–479) (fowl adenovirus serotype 4 (FAdV-4)). Description: crystal structure.
The target is the same in data set [2]. The data set can be described thus: SEC; Superdex200 Increase 10/300 GL; protein eluted at 14.78 mL. (In gel filtration, larger molecules generally elute earlier.)
Data set [3] shares this target. The data set can be described thus: AUC.
For data set [4] the target is unchanged. The data set can be described thus: SDS-PAGE without boiling.
The target in data set [5] is knob domain of the FAdV-4 Fiber2 protein (Fowl aviadenovirus 4, UniProt A0A1B1SKZ0). The data set can be described thus: Surface plasmon resonance assay (Biacore X100, CM5 chip). It counts as binding, fowl adenovirus serotype 4 (FAdV-4). On the technique in general: Surface plasmon resonance follows binding to a sensor surface in real time, without labels.
A further data set has as its system LMH cells. The following applies: 0-200 μM, 24, 48 and 72 h incubation, vs untreated group.
Data set [6] deals with knob domain of the FAdV-4 Fiber2 protein (amino acids 279–479) (fowl adenovirus serotype 4 (FAdV-4)). Description: SPR.

One may read the stoichiometry N as the number of molecules, sites or subunits per partner or assembly. As to “knob domain of the FAdV-4 Fiber2 protein (amino acids 279–479) (domain or fragment)”, the stoichiometry N in data set [1], in data set [2], in data set [3] and in data set [4] was 3 in each case.
What is called Kd is the concentration at which binding is half-saturated. A lower Kd goes with higher affinity. For MQKHEW [Peptide P25, MQKHEW], the affinity in data set [5], expressed as Kd, was 1370 nM.
The same measure, in the same setting: with QWKIEK [Peptide P5, QWKIEK] the figure was 1200 nM; with QWKARV [Peptide P14, QWKARV], 24000 nM; with QWKIHR [Peptide P6, QWKIHR], 2780 nM.
In turn, MQKHCG [Peptide P27, MQKHCG] returned a Kd in data set [5] of 572 nM.
Still for that read-out and setting: with QWKNCK [Peptide P10, QWKNCK] the figure was 1020 nM.
As for WWHEKE [Peptide P15, WWHEKE], the “cytotoxic effect (CCK-8)” value with LMH cells is “no cytotoxic effect”.
As for QWKKHI [Peptide P1, QWKKHI], the Kd in data set [5] worked out at 6160 nM.
The same measure, in the same setting: as for MQKKFI [Peptide P30, MQKKFI], the figure is 907 nM.
For QWKIEK [peptide P5], in data set [6], the Kd was determined as 1200 nM.
On the same count and under the same terms, with MQKHCG [peptide P27] the figure was 572 nM; with QWKARV [peptide P14], 24000 nM.
Same read-out and setting: as for WWHEKE [peptide number 15 (P15; WWHEKE)], the figure is 1440 nM; as for QWKIHR [peptide P6], 2780 nM.
Same read-out and setting: as for QWKNCK [peptide P10], the figure is 1020 nM; as for MQKKFI [peptide P30], 907 nM; as for MQKHEW [peptide P25], 1370 nM.
With QWKKHI [peptide P1], the Kd in data set [6] turned out to be 6160 nM.
